Data taken from patent US20250320295A1 (INHIBRX BIOSCIENCES, published 2025).

How the values were obtained:
[1] = target: T1, Human CD8a (human, UniProt P01732 22-235); experiment: flow cytometry, isolated human T cells, PI-CD4- gate (table title says transfected HEK293F cells)
T1 construct: also called CD8α; human CD8a-FL
Experimental: Binding of polypeptides comprising a humanized CD8a-binding VHH domain, an Fc region, and, in certain polypeptides, a mutated, attenuated IL-2 fused to the C-terminus of the Fc region, was assessed by flow cytometry on isolated human T cells. […] Complexes or polypeptides that are not labeled “KiH” form homodimers under physiologic conditions. The isolated cells were plated in a 96-well plate at 50,000 cells per well in FACS buffer (PBS, 1% BSA, 0.1% NaN₃, pH 7.4). Test polypeptides were then diluted to 2× the final concentration of 200 nM, and a 5-fold serial dilution was made. FACS buffer with no polypeptide was used as a secondary antibody-only control. Test polypeptides were added to an equal volume of cells, and assay plates were incubated for 30 minutes at 4° C. After washing twice with 150 μL of FACS buffer per well, the cells were resuspended in FACS buffer with a fluorescently-labeled anti-human IgG antibody diluted 1:1000 to detect CD8α binding and fluorescently labeled anti-CD4 antibody (clone OKT4, 1:200). Propidium iodide (PI) was added at 1:2000 to distinguish live cells from dead cells. Assay plates were incubated at 4° C. for 30 minutes. After one additional wash with 150 μL of FACS buffer, polypeptide bound to CD8α was detected by flow cytometry on PI-CD4− and on PI-CD4+ cells. Binding was measured on these cell populations as mean fluorescence intensity (MFI) at 647 nm. Flow cytometric detection was performed on an ACEA Biosciences Novocyte-Quanteon Flow Cytometer. The data were plotted and analyzed using GraphPad Prism analysis software.

[2] = target: T1, Human CD8a; experiment: flow cytometry, HEK293F cells transfected with human CD8a (citrine+ gate)
Experimental: Binding of polypeptides comprising a humanized CD8a-binding VHH domain, an Fc region, and, in certain polypeptides, a mutated, attenuated IL-2 fused to the C-terminus of the Fc region, was assessed by flow cytometry on HEK293F cells transiently transfected with a plasmid encoding human CD8α or CD8b chains. […] Complexes or polypeptides that are not labeled “KiH” form homodimers under physiologic conditions. The transfected cells were plated in a 96-well plate at 50,000 cells per well in FACS buffer (PBS, 1% BSA, 0.1% NaN₃, pH 7.4). Test polypeptides were then diluted to 2× the final concentration of 500 nM, and a 6-fold serial dilution was made. FACS buffer with no polypeptide was used as a secondary antibody-only control. Test polypeptides were added to an equal volume of cells, and assay plates were incubated for 30 minutes at 4° C. After washing twice with 150 μL of FACS buffer per well, the cells were resuspended in FACS buffer with a fluorescently-labeled anti-human Fc antibody diluted 1:1000 to detect CD8 binding. Assay plates were incubated at 4° C. for 30 minutes. After one additional wash with 150 μL of FACS buffer, polypeptide bound to CD8 was detected by flow cytometry on cells positive for the transfection marker citrine. Binding was measured on these cell populations as mean fluorescence intensity (MFI) at 647 nm. Flow cytometric detection was performed on an IntelliCyt iQue Screener Plus. The data were plotted and analyzed using GraphPad Prism analysis software.

T1 sequence (P01732 22-235): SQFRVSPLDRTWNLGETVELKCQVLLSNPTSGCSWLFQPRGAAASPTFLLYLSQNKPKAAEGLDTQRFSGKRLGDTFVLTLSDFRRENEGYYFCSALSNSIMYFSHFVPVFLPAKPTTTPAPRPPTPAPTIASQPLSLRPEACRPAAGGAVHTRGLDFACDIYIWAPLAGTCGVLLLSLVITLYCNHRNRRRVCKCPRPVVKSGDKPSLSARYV

| Bmax (MFI) [1] | Kd [1] | Bmax (MFI) [2] | Kd [2] | Binder |
| --- | --- | --- | --- | --- |
|  |  | 1.45e+07 MFI | 3.18 nM | hzB7v27-xELL-P329G-KiH Fc-IL-2 mutant (Fc fusion, Knob-in-hole heterodimer: VHH on the N-terminus of each Fc, mutant IL-2 only on the knob Fc; not shown: mutant, attenuated IL-2 fused to the C-terminus of the knob Fc) chain 1: QVQLVQSGGGEVQPGGSLRLSCAASGFTFDDYAMSWVRQAPGKGLEWVSTITWDAEGTYYAESVKGRFTISRDNAKNTVYLQMSSLRAEDTAVYYCAKGSPELQYDTWGQGTLVTVKPDKTHTCPPCPAPGGPSVFLFPPKPKDTLMISRTPEVTCVVVDVSHEDPEVKFNWYVDGVEVHNAKTKPREEQYNSTYRVVSVLTVLHQDWLNGKEYKCKVSNKALGAPIEKTISKAKGQPREPQVCTLPPSRDELTKNQVSLSCAVKGFYPSDIAVEWESNGQPENNYKTTPPVLDSDGSFFLVSKLTVDKSRWQQGNVFSCSVMHEALHNRYTQKSLSLSPG chain 2: QVQLVQSGGGEVQPGGSLRLSCAASGFTFDDYAMSWVRQAPGKGLEWVSTITWDAEGTYYAESVKGRFTISRDNAKNTVYLQMSSLRAEDTAVYYCAKGSPELQYDTWGQGTLVTVKPDKTHTCPPCPAPGGPSVFLFPPKPKDTLMISRTPEVTCVVVDVSHEDPEVKFNWYVDGVEVHNAKTKPREEQYNSTYRVVSVLTVLHQDWLNGKEYKCKVSNKALGAPIEKTISKAKGQPREPQVYTLPPCRDELTKNQVSLWCLVKGFYPSDIAVEWESNGQPENNYKTTPPVLDSDGSFFLYSKLTVDKSRWQQGNVFSCSVMHEALHNHYTQKSLSLSPG |
| 76100 MFI | 4.05 nM |  |  | hzB7v34-xELL-KiH Fc-IL-2 mutant (Fc fusion, Knob-in-hole heterodimer: VHH on the N-terminus of each Fc, mutant IL-2 only on the knob Fc; not shown: mutant, attenuated IL-2 fused to the C-terminus of the knob Fc) chain 1: QVQLVQSGGGEVQPGGSLRLSCAASGFTFDDYAMSWVRQAPGKGLEWVSTITWSAGGTDYAAPVKGRFTISRDNAKNTVYLQMSSLRAEDTAVYYCAKGSPELQYDTWGQGTLVTVKPDKTHTCPPCPAPGGPSVFLFPPKPKDTLMISRTPEVTCVVVDVSHEDPEVKFNWYVDGVEVHNAKTKPREEQYNSTYRVVSVLTVLHQDWLNGKEYKCKVSNKALPAPIEKTISKAKGQPREPQVCTLPPSRDELTKNQVSLSCAVKGFYPSDIAVEWESNGQPENNYKTTPPVLDSDGSFFLVSKLTVDKSRWQQGNVFSCSVMHEALHNRYTQKSLSLSPGK chain 2: QVQLVQSGGGEVQPGGSLRLSCAASGFTFDDYAMSWVRQAPGKGLEWVSTITWSAGGTDYAAPVKGRFTISRDNAKNTVYLQMSSLRAEDTAVYYCAKGSPELQYDTWGQGTLVTVKPDKTHTCPPCPAPGGPSVFLFPPKPKDTLMISRTPEVTCVVVDVSHEDPEVKFNWYVDGVEVHNAKTKPREEQYNSTYRVVSVLTVLHQDWLNGKEYKCKVSNKALPAPIEKTISKAKGQPREPQVYTLPPCRDELTKNQVSLWCLVKGFYPSDIAVEWESNGQPENNYKTTPPVLDSDGSFFLYSKLTVDKSRWQQGNVFSCSVMHEALHNHYTQKSLSLSPG |
|  | 0.139 nM |  |  | hzB7v33-xELL-KiH Fc-IL-2 mutant (Fc fusion, Knob-in-hole heterodimer: VHH on the N-terminus of each Fc, mutant IL-2 only on the knob Fc; not shown: mutant, attenuated IL-2 fused to the C-terminus of the knob Fc) chain 1: QVQLVQSGGGEVQPGGSLRLSCAASGFTFDDYAMSWVRQAPGKGLEWVSTITWSAEGTYYAAPVKGRFTISRDNAKNTVYLQMSSLRAEDTAVYYCAKGSPELQYDTWGQGTLVTVKPDKTHTCPPCPAPGGPSVFLFPPKPKDTLMISRTPEVTCVVVDVSHEDPEVKFNWYVDGVEVHNAKTKPREEQYNSTYRVVSVLTVLHQDWLNGKEYKCKVSNKALPAPIEKTISKAKGQPREPQVCTLPPSRDELTKNQVSLSCAVKGFYPSDIAVEWESNGQPENNYKTTPPVLDSDGSFFLVSKLTVDKSRWQQGNVFSCSVMHEALHNRYTQKSLSLSPGK chain 2: QVQLVQSGGGEVQPGGSLRLSCAASGFTFDDYAMSWVRQAPGKGLEWVSTITWSAEGTYYAAPVKGRFTISRDNAKNTVYLQMSSLRAEDTAVYYCAKGSPELQYDTWGQGTLVTVKPDKTHTCPPCPAPGGPSVFLFPPKPKDTLMISRTPEVTCVVVDVSHEDPEVKFNWYVDGVEVHNAKTKPREEQYNSTYRVVSVLTVLHQDWLNGKEYKCKVSNKALPAPIEKTISKAKGQPREPQVYTLPPCRDELTKNQVSLWCLVKGFYPSDIAVEWESNGQPENNYKTTPPVLDSDGSFFLYSKLTVDKSRWQQGNVFSCSVMHEALHNHYTQKSLSLSPG |

More lines, now with the values behind:

| Binder | Bmax (MFI) [1] | Kd [1] | Bmax (MFI) [2] | Kd [2] |
| --- | --- | --- | --- | --- |
| hzB7v30-xELL-KiH Fc-IL-2 mutant (Fc fusion, Knob-in-hole heterodimer: VHH on the N-terminus of each Fc, mutant IL-2 only on the knob Fc; not shown: mutant, attenuated IL-2 fused to the C-terminus of the knob Fc) chain 1: QVQLVQSGGGEVQPGGSLRLSCAASGFTFDDYAMSWVRQAPGKGLEWVSTITWDAGGTDYAAPVKGRFTISRDNAKNTVYLQMSSLRAEDTAVYYCAKGSPELQYDTWGQGTLVTVKPDKTHTCPPCPAPGGPSVFLFPPKPKDTLMISRTPEVTCVVVDVSHEDPEVKFNWYVDGVEVHNAKTKPREEQYNSTYRVVSVLTVLHQDWLNGKEYKCKVSNKALPAPIEKTISKAKGQPREPQVCTLPPSRDELTKNQVSLSCAVKGFYPSDIAVEWESNGQPENNYKTTPPVLDSDGSFFLVSKLTVDKSRWQQGNVFSCSVMHEALHNRYTQKSLSLSPGK chain 2: QVQLVQSGGGEVQPGGSLRLSCAASGFTFDDYAMSWVRQAPGKGLEWVSTITWDAGGTDYAAPVKGRFTISRDNAKNTVYLQMSSLRAEDTAVYYCAKGSPELQYDTWGQGTLVTVKPDKTHTCPPCPAPGGPSVFLFPPKPKDTLMISRTPEVTCVVVDVSHEDPEVKFNWYVDGVEVHNAKTKPREEQYNSTYRVVSVLTVLHQDWLNGKEYKCKVSNKALPAPIEKTISKAKGQPREPQVYTLPPCRDELTKNQVSLWCLVKGFYPSDIAVEWESNGQPENNYKTTPPVLDSDGSFFLYSKLTVDKSRWQQGNVFSCSVMHEALHNHYTQKSLSLSPG | 247000 MFI | 0.0943 nM |  |  |
| hzB7v28-xELL-P329G-KiH Fc-IL-2 mutant (Fc fusion, Knob-in-hole heterodimer: VHH on the N-terminus of each Fc, mutant IL-2 only on the knob Fc; not shown: mutant, attenuated IL-2 fused to the C-terminus of the knob Fc) chain 1: QVQLVQSGGGEVQPGGSLRLSCAASGFTFDDYAMSWVRQAPGKGLEWVSTITWDAEGTDYAAPVKGRFTISRDNAKNTVYLQMSSLRAEDTAVYYCAKGSPELQYDTWGQGTLVTVKPDKTHTCPPCPAPGGPSVFLFPPKPKDTLMISRTPEVTCVVVDVSHEDPEVKFNWYVDGVEVHNAKTKPREEQYNSTYRVVSVLTVLHQDWLNGKEYKCKVSNKALGAPIEKTISKAKGQPREPQVCTLPPSRDELTKNQVSLSCAVKGFYPSDIAVEWESNGQPENNYKTTPPVLDSDGSFFLVSKLTVDKSRWQQGNVFSCSVMHEALHNRYTQKSLSLSPG chain 2: QVQLVQSGGGEVQPGGSLRLSCAASGFTFDDYAMSWVRQAPGKGLEWVSTITWDAEGTDYAAPVKGRFTISRDNAKNTVYLQMSSLRAEDTAVYYCAKGSPELQYDTWGQGTLVTVKPDKTHTCPPCPAPGGPSVFLFPPKPKDTLMISRTPEVTCVVVDVSHEDPEVKFNWYVDGVEVHNAKTKPREEQYNSTYRVVSVLTVLHQDWLNGKEYKCKVSNKALGAPIEKTISKAKGQPREPQVYTLPPCRDELTKNQVSLWCLVKGFYPSDIAVEWESNGQPENNYKTTPPVLDSDGSFFLYSKLTVDKSRWQQGNVFSCSVMHEALHNHYTQKSLSLSPG |  |  | 1.37e+07 MFI | 2.84 nM |
| hzB7v26-xELL-P329G-KiH Fc-IL-2 mutant (Fc fusion, Knob-in-hole heterodimer: VHH on the N-terminus of each Fc, mutant IL-2 only on the knob Fc; not shown: mutant, attenuated IL-2 fused to the C-terminus of the knob Fc) chain 1: QVQLVQSGGGEVQPGGSLRLSCAASGFTFDDYAMSWVRQAPGKGLEWVSTITWDAGGTDYAESVKGRFTISRDNAKNTVYLQMSSLRAEDTAVYYCAKGSPELQYDTWGQGTLVTVKPDKTHTCPPCPAPGGPSVFLFPPKPKDTLMISRTPEVTCVVVDVSHEDPEVKFNWYVDGVEVHNAKTKPREEQYNSTYRVVSVLTVLHQDWLNGKEYKCKVSNKALGAPIEKTISKAKGQPREPQVCTLPPSRDELTKNQVSLSCAVKGFYPSDIAVEWESNGQPENNYKTTPPVLDSDGSFFLVSKLTVDKSRWQQGNVFSCSVMHEALHNRYTQKSLSLSPG chain 2: QVQLVQSGGGEVQPGGSLRLSCAASGFTFDDYAMSWVRQAPGKGLEWVSTITWDAGGTDYAESVKGRFTISRDNAKNTVYLQMSSLRAEDTAVYYCAKGSPELQYDTWGQGTLVTVKPDKTHTCPPCPAPGGPSVFLFPPKPKDTLMISRTPEVTCVVVDVSHEDPEVKFNWYVDGVEVHNAKTKPREEQYNSTYRVVSVLTVLHQDWLNGKEYKCKVSNKALGAPIEKTISKAKGQPREPQVYTLPPCRDELTKNQVSLWCLVKGFYPSDIAVEWESNGQPENNYKTTPPVLDSDGSFFLYSKLTVDKSRWQQGNVFSCSVMHEALHNHYTQKSLSLSPG |  |  | 1.52e+07 MFI | 4.55 nM |
